From PMC4599659 come the findings set out here.

Assay [1] addresses P22 coat protein (bacteriophage P22) (UniProt P26747). As to the kind of experiment: SEC-MALS; P22-CYP VLPs from differential expression 1 (pBAD + pRSF; 0.2 % L-arabinose, then 0.5 mM IPTG) in E. coli, purified; HPLC-MALS-RI on WTC-100S5 column, 50 mM phosphate pH 7.2, 100 mM NaCl, 200 ppm sodium azide; CYP-SP per capsid by Eq. 1. A general note: In gel filtration, larger molecules generally elute earlier.

The target is the same in assay [2]. As to the kind of experiment: SEC-MALS; P22-CYP VLPs from differential expression 2 (pBAD + pRSF; 0.125 % L-arabinose, then 0.3 mM IPTG) in E. coli, purified; HPLC-MALS-RI on WTC-100S5 column, 50 mM phosphate pH 7.2, 100 mM NaCl, 200 ppm sodium azide; CYP-SP per capsid by Eq. 1.
For assay [3] the target is unchanged. As to the kind of experiment: SEC-MALS; P22-CYP VLPs from co-expression (pETDuet) in E. coli, purified; HPLC-MALS-RI on WTC-100S5 column, 50 mM phosphate pH 7.2, 100 mM NaCl, 200 ppm sodium azide; CYP-SP per capsid by Eq. 1 (capsid mass taken as 19,572 kDa, CYP-SP 71.5 kDa).

A word on the stoichiometry N: it is a count of units in the complex or per binding partner.

Sequence of UniProt P26747 (P26747 whole entry): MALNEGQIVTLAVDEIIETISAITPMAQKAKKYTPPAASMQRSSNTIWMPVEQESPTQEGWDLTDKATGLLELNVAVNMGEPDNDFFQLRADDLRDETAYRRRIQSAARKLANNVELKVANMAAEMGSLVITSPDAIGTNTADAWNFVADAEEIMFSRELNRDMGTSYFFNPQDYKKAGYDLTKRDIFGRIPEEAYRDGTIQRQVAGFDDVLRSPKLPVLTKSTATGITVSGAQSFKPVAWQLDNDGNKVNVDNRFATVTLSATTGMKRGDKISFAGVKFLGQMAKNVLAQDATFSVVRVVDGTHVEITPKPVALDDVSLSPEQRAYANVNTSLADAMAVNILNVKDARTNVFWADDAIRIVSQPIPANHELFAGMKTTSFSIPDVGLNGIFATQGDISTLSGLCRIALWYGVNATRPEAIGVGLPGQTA

Take “CYPBM3 "21B3"-scaffold protein fusion (CYP-SP) (from UniProt P26748 141-303)”: the stoichiometry N worked out at 130 CYP/capsid in assay [1], 110 CYP/capsid in assay [2] and 156 CYP/capsid in assay [3].
